Measured values as given in patent US20220152154A1, “GROWTH DIFFERENTIATION FACTOR 15 COMBINATION THERAPY” (Amgen Inc., priority 2019, published 2022).

Key:
[1] = Food intake measured three consecutive days per week; assay type: in vivo; design: key: ns: not significant; *: p < 0.05; **: p < 0.005; ***: p < 0.001; ****: p < 0.0001; details: male C57Bl/6 DIO mice, 2-way ANOVA with Dunnett's analysis
Description: (§1) Male C57Bl/6 DIO mice, 19-20 weeks old (13-14 weeks on high fat diet) at beginning of dosing, were placed into the following treatment groups: Group A—Vehicle, in which the animals were administered vehicle weekly; Group B—Dulaglutide, in which the animals were administered 0.1 mg/kg (2 nmol/kg) of dulaglutide twice per week; Group C—GIPR Ab, in which the animals were administered 5 mg/kg (33 nmol/kg) of antibody 2.63.1 (having a light and heavy chain sequence of SEQ ID NOs: 105 and 106, respectively) weekly and vehicle weekly (the latter being on the alternate dulaglutide dosing day); Group D—GDF15, in which the animals were administered 0.125 mg/kg (1 nmol/kg) of FcΔ10(−)-(G4S)4-GDF15 (SEQ ID NO: 39) (along with its heterodimerization partner, FcΔ10(+,K) (SEQ ID NO: 32)) weekly and vehicle weekly (the latter on the alternate dulaglutide dosing day); Group E—GDF15+Dulaglutide, in which the animals were administered 0.125 mg/kg (1 nmol/kg) of FcΔ10(−)-(G4S)4-GDF15) (along with its heterodimerization partner, FcΔ10(+,K)) weekly and 0.1 mg/kg (2 nmol/kg) of dulaglutide twice per week; Group F—GDF15+GIPR Ab, in which the animals were administered 0.125 mg/kg (1 nmol/kg) of FcΔ10(−)-(G4S)4-GDF15 (along with its heterodimerization partner, FcΔ10(+,K)) weekly and 5 mg/kg (33 nmol/kg) of antibody 2.63.1 weekly. The animals were dosed for 5 weeks with through subcutaneous injection.

[2] = Body weight change in DIO mice treated for 5 weeks; assay type: in vivo; design: key to Significance of Body Weight Change: ns: not significant; *: p < 0.05; **: p < 0.005; ***: p < 0.001; ****: p < 0.0001; details: subcutaneous; for Significance of Body Weight Change: male C57Bl/6 DIO mice, 2-way ANOVA with Dunnett's analysis; for change in body weight: DIO mice
Description: as §1
Body weight was measured twice per week.

B1: GIPR Ab: GIPR antibody 2.63.1 having a light and heavy chain sequence of SEQ ID NOs: 105 and 106 (antibody)
heavy: MGWSYIILFLVATATDVHSQVQLQQPGAELVKPGASVKLSCRASGYTFTSNWMHWVKQRPRQGLEWIGEINPSNGRSNYNEKFKTKATLTVDKSSSTAYMQLSSLTSEDSAVYYCARFYYGTSWFAYWGQGTLVAVSAAKTTPPSVYPLAPGSAAQTNSMVTLGCLVKGYFPEPVTVTWNSGSLSSGVHTFPAVLQSDLYTLSSSVTVPSSTWPSETVTCNVAHPASSTKVDKKIVPRDCGCKPCICTVPEVSSVFIFPPKPKDVLTITLTPKVTCVVVDISKDDPEVQFSWFVDDVEVHTAQTQPREEQFASTFRSVSELPIMHQDWLNGKEFKCRVNSAAFPAPIEKTISKTKGRPKAPQVYTIPPPKEQMAKDKVSLTCMITDFFPEDITVEWQWNGQPAENYKNTQPIMDTDGSYFVYSKLNVQKSNWEAGNTFTCSVLHEGLHNHHTEKSLSHSPGK
light: MKLPVRLLVLMFWIPASSSDVVMTQTPLSLPVSLGDQASISCRSSQSLVHSNGDTYLHWYLQKPGQSPKLLIYKVSNRFSGVPDRFSGSGSGTDFTLKISRVEAADLGVYFCSQSTHVPPFTFGGGTKLEIKRADAAPTVSIFPPSSEQLTSGGASVVCFLNNFYPKDINVKWKIDGSERQNGVLNSWTDQDSKDSTYSMSSTLTLTKDEYERHNSYTCEATHKTSTSPIVKSFNRNEC
Significance of Food Intake Assay ([1]; D2): ns | Significance of Food Intake Assay ([1]; D8): ns | Significance of Food Intake Assay ([1]; D9): ns | Significance of Food Intake Assay ([1]; D10): ns | Significance of Food Intake Assay ([1]; D15): ns | Significance of Food Intake Assay ([1]; D16): ns | Significance of Food Intake Assay ([1]; D17): ns | Significance of Food Intake Assay ([1]; D22): * (p < 0.05) | Significance of Food Intake Assay ([1]; D23): ns | Significance of Food Intake Assay ([1]; D24): ns | Significance of Food Intake Assay ([1]; D29): ns | Significance of Food Intake Assay ([1]; D30): ns | Significance of Food Intake Assay ([1]; D31): ns | Significance of Body Weight Change ([2]; D0): ns | Significance of Body Weight Change ([2]; D3): ns | Significance of Body Weight Change ([2]; D7): ns | Significance of Body Weight Change ([2]; D10): ns | Significance of Body Weight Change ([2]; D14): ns | Significance of Body Weight Change ([2]; D17): ns | Significance of Body Weight Change ([2]; D21): ns | Significance of Body Weight Change ([2]; D31): ns | Significance of Body Weight Change ([2]; D35): ns | Significance of Body Weight Change ([2]; D-4): ns | change in body weight ([2]; five weeks after treatment): 2.24% | change in body weight ([2]; two weeks after treatment): −0.91%
